Experimental data reported in article PMC8789049, “Regulation of AR mRNA translation in response to acute AR pathway inhibition”.

B1: 7301-UM (ssRNA)
RNA: GGAUAUUUUGAAGGACUGUCAUAUAUCUUU
B2: 8953-UM (ssRNA)
RNA: AACUCAAUGGAACUGACUGAGAUUUACCAC
B3: 6908-UM (ssRNA)
RNA: CCUGUGAGGGACUGGCCACUCAGACCCACU
B4: 8953-m6A (ssRNA)
RNA: B2 RNA
modifications: m6A in GAm6ACU
B5: 6908-m6A (ssRNA)
RNA: B3 RNA
modifications: m6A in GGm6ACU
B6: 7301-m6A (ssRNA)
RNA: B1 RNA
modifications: m6A in GGm6ACU

What follows are binders tested against G3BP1 (UniProt Q13283 1-466) (assay: EMSA; REMSA: 6.25 nM biotin probe, 100 mM HEPES pH 7.3, 200 mM KCl, 10 mM MgCl2, 10 mM DTT, 5% glycerol, 2 ug tRNA, 20 ul, 30 min, temperature not stated; 6% native PAGE in 0.5x TBE). Details: protein: recombinant; tags: His-tag (pET-28a(+)-TEV); chain copies: 2; label: biotin.
Chain of G3BP1 (Q13283 whole entry): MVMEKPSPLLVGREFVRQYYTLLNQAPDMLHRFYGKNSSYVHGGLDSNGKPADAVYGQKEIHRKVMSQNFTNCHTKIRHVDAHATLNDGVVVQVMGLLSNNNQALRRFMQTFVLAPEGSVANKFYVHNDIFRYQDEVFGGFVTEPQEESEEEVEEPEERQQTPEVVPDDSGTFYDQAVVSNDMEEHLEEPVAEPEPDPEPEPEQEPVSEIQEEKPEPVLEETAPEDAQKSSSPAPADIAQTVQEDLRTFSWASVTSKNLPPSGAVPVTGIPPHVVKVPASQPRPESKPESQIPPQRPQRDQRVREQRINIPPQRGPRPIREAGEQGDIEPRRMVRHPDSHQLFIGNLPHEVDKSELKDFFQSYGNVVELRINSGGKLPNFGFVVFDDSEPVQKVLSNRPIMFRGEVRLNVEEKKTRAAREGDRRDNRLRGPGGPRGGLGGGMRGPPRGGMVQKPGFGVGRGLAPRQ

Row | Binder | binding result
1 | B1 | binds
2 | B2 | binds
3 | B3 | binds

What follows are binders tested against T1, YTHDF3 (UniProt Q7Z739 1-585) in the same assay as above. Details: protein: recombinant; tags: His-tag (pET-28a(+)-TEV); label: biotin.
T1 sequence: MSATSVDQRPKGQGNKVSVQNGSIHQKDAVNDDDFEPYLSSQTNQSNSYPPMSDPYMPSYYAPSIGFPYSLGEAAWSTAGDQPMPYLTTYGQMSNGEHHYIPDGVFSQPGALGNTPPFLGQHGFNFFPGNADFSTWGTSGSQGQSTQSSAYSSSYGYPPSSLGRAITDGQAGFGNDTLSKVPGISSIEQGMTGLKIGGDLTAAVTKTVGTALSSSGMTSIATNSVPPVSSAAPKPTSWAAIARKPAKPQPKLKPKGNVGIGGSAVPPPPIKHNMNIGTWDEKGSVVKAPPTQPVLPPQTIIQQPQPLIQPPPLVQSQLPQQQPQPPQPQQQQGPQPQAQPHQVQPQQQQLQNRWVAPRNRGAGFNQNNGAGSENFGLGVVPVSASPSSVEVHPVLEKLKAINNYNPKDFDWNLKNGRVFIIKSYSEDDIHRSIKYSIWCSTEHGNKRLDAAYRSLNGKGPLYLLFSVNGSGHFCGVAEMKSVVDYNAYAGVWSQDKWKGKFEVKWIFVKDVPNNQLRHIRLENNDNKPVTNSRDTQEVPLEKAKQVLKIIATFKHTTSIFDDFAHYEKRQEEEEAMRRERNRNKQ

Row | Binder | binding result
4 | B4 | binds
5 | B5 | binds
6 | B1 | no binding
7 | B2 | no binding
8 | B3 | no binding
9 | B6 | binds
